Laboratory results reported in the supplement of paper PMC9112550, “Optimization of the antimicrobial peptide Bac7 by deep mutational scanning” (BMC Biology, 2022).

test system: Escherichia coli TOP10; experiment: shrunken log2 fold change of peptide-encoding DNA abundance (4.5 h post-induction vs induction); higher = less antimicrobial activity (less host growth inhibition); settings: time post-induction: 4.5 h; library: site-saturation at positions 5, 18, 19, 20
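Also: peptides expressed intracellularly from a pBAD plasmid library in pooled LB shake-flask culture, induced with 0.3% L-arabinose, DNA abundance read by NGS, three biological replicates, DESeq2 with apeglm shrinkage.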

Row | Sequence | shrunken log2 fold change
1 | RRIRARPPRLPRPRPRPFCVPRP | 0.19
2 | RRIRDRPPRLPRPRPRPWQLPRP | 0.0822
3 | RRIRSRPPRLPRPRPRPHDMPRP | -0.335
4 | RRIRNRPPRLPRPRPRPSEDPRP | -0.145
5 | RRIRQRPPRLPRPRPRPTLKPRP | -0.0628
6 | RRIRFRPPRLPRPRPRPNHNPRP | -0.711
7 | RRIRKRPPRLPRPRPRPSVGPRP | 0.0485
8 | RRIRIRPPRLPRPRPRPAKPPRP | 0.297
9 | RRIRDRPPRLPRPRPRPIYQPRP | -0.431
10 | RRIRLRPPRLPRPRPRPRIDPRP | -0.0317
11 | RRIRHRPPRLPRPRPRPFKEPRP | -0.289
12 | RRIRQRPPRLPRPRPRPNFCPRP | 0.117
13 | RRIRVRPPRLPRPRPRPTSDPRP | 0.431
14 | RRIRWRPPRLPRPRPRPMAVPRP | 0.173
15 | RRIRKRPPRLPRPRPRPTVLPRP | 0.0143
16 | RRIRSRPPRLPRPRPRPAKTPRP | 0.111
17 | RRIRSRPPRLPRPRPRPRYMPRP | -0.664
18 | RRIRTRPPRLPRPRPRPTHMPRP | -0.0271
19 | RRIRGRPPRLPRPRPRPYDRPRP | 0.136
20 | RRIRRRPPRLPRPRPRPYHHPRP | -0.471
21 | RRIRDRPPRLPRPRPRPHTIPRP | -0.351
22 | RRIRNRPPRLPRPRPRPREWPRP | -0.00528
23 | RRIRGRPPRLPRPRPRPHVNPRP | 0.295
24 | RRIRPRPPRLPRPRPRPMKQPRP | 0.036
25 | RRIRIRPPRLPRPRPRPSCQPRP | -0.0446

Row | Sequence | shrunken log2 fold change
26 | RRIRQRPPRLPRPRPRPLKSPRP | 0.138
27 | RRIRVRPPRLPRPRPRPKNSPRP | -0.34
28 | RRIRPRPPRLPRPRPRPVEQPRP | 0.239
29 | RRIRMRPPRLPRPRPRPHKTPRP | 0.0147
30 | RRIRNRPPRLPRPRPRPMESPRP | -0.0333
31 | RRIRRRPPRLPRPRPRPPHFPRP | 0.897
32 | RRIRRRPPRLPRPRPRPSENPRP | -0.0437
33 | RRIRQRPPRLPRPRPRPWIRPRP | -0.166
34 | RRIRLRPPRLPRPRPRPWWCPRP | -0.0878
35 | RRIRFRPPRLPRPRPRPNVTPRP | -0.724
36 | RRIRMRPPRLPRPRPRPKGHPRP | 0.0377
37 | RRIRKRPPRLPRPRPRPHWEPRP | -0.102
38 | RRIRMRPPRLPRPRPRPYTPPRP | -0.847
39 | RRIRNRPPRLPRPRPRPEWRPRP | 0.404
40 | RRIRARPPRLPRPRPRPGYMPRP | -0.21
41 | RRIRCRPPRLPRPRPRPMPPPRP | 0.914
42 | RRIRSRPPRLPRPRPRPFNTPRP | -0.257
43 | RRIRDRPPRLPRPRPRPICKPRP | 0.00282
44 | RRIRPRPPRLPRPRPRPPCLPRP | -0.153
45 | RRIRIRPPRLPRPRPRPHIKPRP | -1.12
46 | RRIRVRPPRLPRPRPRPPGCPRP | 0.232
47 | RRIRPRPPRLPRPRPRPFFIPRP | -0.249
48 | RRIRGRPPRLPRPRPRPIKIPRP | 0.302
49 | RRIRGRPPRLPRPRPRPAIIPRP | 0.134
50 | RRIRRRPPRLPRPRPRPFDMPRP | -0.0228

Row | Sequence | shrunken log2 fold change
51 | RRIRARPPRLPRPRPRPTYNPRP | -0.121
52 | RRIRRRPPRLPRPRPRPKTYPRP | -0.239
53 | RRIRHRPPRLPRPRPRPSTCPRP | -0.0299
54 | RRIRARPPRLPRPRPRPQLTPRP | 0.179
55 | RRIRIRPPRLPRPRPRPCQAPRP | -0.025
56 | RRIRGRPPRLPRPRPRPALHPRP | 0.866
57 | RRIRGRPPRLPRPRPRPLVIPRP | 0.187
58 | RRIRLRPPRLPRPRPRPFWQPRP | -0.0702
59 | RRIRIRPPRLPRPRPRPQKAPRP | 0.0173
60 | RRIRRRPPRLPRPRPRPFMWPRP | 0.00755
61 | RRIRSRPPRLPRPRPRPATTPRP | 0.584
62 | RRIRTRPPRLPRPRPRPDVGPRP | -0.0549
63 | RRIRGRPPRLPRPRPRPPDMPRP | 0.879
64 | RRIRLRPPRLPRPRPRPKHFPRP | -0.494
65 | RRIRLRPPRLPRPRPRPYMKPRP | -0.804
66 | RRIRVRPPRLPRPRPRPNHHPRP | -0.373
67 | RRIRRRPPRLPRPRPRPFRGPRP | -0.105
68 | RRIRQRPPRLPRPRPRPFSMPRP | -0.0842
69 | RRIRGRPPRLPRPRPRPKYVPRP | 0.0402
70 | RRIRWRPPRLPRPRPRPECYPRP | -0.0149
71 | RRIRSRPPRLPRPRPRPYSAPRP | -0.0105
72 | RRIRLRPPRLPRPRPRPIRKPRP | -0.14
73 | RRIRQRPPRLPRPRPRPPVPPRP | 0.197
74 | RRIRCRPPRLPRPRPRPWEPPRP | -0.00185
75 | RRIRCRPPRLPRPRPRPTAKPRP | 0.226

Row | Sequence | shrunken log2 fold change
76 | RRIRSRPPRLPRPRPRPQKAPRP | 0.091
77 | RRIRGRPPRLPRPRPRPRWPPRP | 0.973
78 | RRIRQRPPRLPRPRPRPHAWPRP | 0.157
79 | RRIRVRPPRLPRPRPRPVNQPRP | -0.0283
80 | RRIRHRPPRLPRPRPRPEHRPRP | -0.137
81 | RRIRKRPPRLPRPRPRPCPEPRP | 0.196
82 | RRIRYRPPRLPRPRPRPFDWPRP | -0.122
83 | RRIRDRPPRLPRPRPRPLMIPRP | 0.072
84 | RRIRARPPRLPRPRPRPIRDPRP | 0.114
85 | RRIRQRPPRLPRPRPRPNFSPRP | -0.23
86 | RRIRKRPPRLPRPRPRPEFFPRP | 0.7
87 | RRIRLRPPRLPRPRPRPCNEPRP | -0.0438
88 | RRIRARPPRLPRPRPRPVNNPRP | -0.223
89 | RRIRHRPPRLPRPRPRPFVAPRP | 1.81
90 | RRIRYRPPRLPRPRPRPAWTPRP | -0.156
91 | RRIRRRPPRLPRPRPRPMDHPRP | -0.0417
92 | RRIRFRPPRLPRPRPRPHDVPRP | -0.00911
93 | RRIRFRPPRLPRPRPRPDVTPRP | -0.302
94 | RRIRGRPPRLPRPRPRPNQTPRP | -0.0961
95 | RRIRIRPPRLPRPRPRPPPLPRP | 0.302
96 | RRIRQRPPRLPRPRPRPFDDPRP | -0.275
97 | RRIRRRPPRLPRPRPRPDQSPRP | 0.0941
98 | RRIRIRPPRLPRPRPRPREMPRP | 0.00525
99 | RRIRFRPPRLPRPRPRPGKIPRP | -0.024
100 | RRIRRRPPRLPRPRPRPFQTPRP | 0.0413

Row | Sequence | shrunken log2 fold change
101 | RRIRVRPPRLPRPRPRPPAYPRP | 0.0576
102 | RRIRTRPPRLPRPRPRPQHLPRP | -0.0898
103 | RRIRVRPPRLPRPRPRPAGAPRP | 0.417
104 | RRIRCRPPRLPRPRPRPDEPPRP | 0.189
105 | RRIRTRPPRLPRPRPRPQTNPRP | -0.199
106 | RRIRNRPPRLPRPRPRPTMHPRP | -0.159
107 | RRIRVRPPRLPRPRPRPNKKPRP | -0.0801
108 | RRIRFRPPRLPRPRPRPAGVPRP | 0.172
109 | RRIRMRPPRLPRPRPRPWIQPRP | -0.228
110 | RRIRYRPPRLPRPRPRPLLYPRP | -0.94
111 | RRIRDRPPRLPRPRPRPMAVPRP | 0.417
112 | RRIRGRPPRLPRPRPRPQRCPRP | 0.0883
113 | RRIRPRPPRLPRPRPRPIQQPRP | 0.000308
114 | RRIRPRPPRLPRPRPRPKKIPRP | 0.0064
115 | RRIRWRPPRLPRPRPRPTRWPRP | 0.573
116 | RRIRIRPPRLPRPRPRPAVRPRP | 0.445
117 | RRIRDRPPRLPRPRPRPMRDPRP | 0.131
118 | RRIRTRPPRLPRPRPRPPYNPRP | -0.252
119 | RRIRHRPPRLPRPRPRPNSTPRP | -1.48
120 | RRIRIRPPRLPRPRPRPYSDPRP | -0.186
121 | RRIRARPPRLPRPRPRPANDPRP | 0.0448
122 | RRIRARPPRLPRPRPRPSLFPRP | 0.349
123 | RRIRKRPPRLPRPRPRPYKHPRP | -0.347
124 | RRIRRRPPRLPRPRPRPSVPPRP | 0.063
125 | RRIRRRPPRLPRPRPRPHKQPRP | -0.00379

Row | Sequence | shrunken log2 fold change
126 | RRIRFRPPRLPRPRPRPRHWPRP | 0.437
127 | RRIRSRPPRLPRPRPRPISWPRP | -0.186
128 | RRIRARPPRLPRPRPRPSFCPRP | 0.167
129 | RRIRRRPPRLPRPRPRPSPQPRP | 1.96
130 | RRIRCRPPRLPRPRPRPEANPRP | 0.477
131 | RRIRNRPPRLPRPRPRPGNSPRP | -0.0208
132 | RRIRWRPPRLPRPRPRPCLDPRP | -0.0586
133 | RRIRHRPPRLPRPRPRPMHQPRP | -0.108
134 | RRIRSRPPRLPRPRPRPQFLPRP | -0.394
135 | RRIRFRPPRLPRPRPRPLSEPRP | -0.22
136 | RRIRQRPPRLPRPRPRPYHNPRP | -0.945
137 | RRIRSRPPRLPRPRPRPGVKPRP | 0.235
138 | RRIRERPPRLPRPRPRPHMVPRP | -0.174
139 | RRIRSRPPRLPRPRPRPDDIPRP | -0.00173
140 | RRIRCRPPRLPRPRPRPRETPRP | 0.647
141 | RRIRNRPPRLPRPRPRPYVTPRP | -0.553
142 | RRIRTRPPRLPRPRPRPIETPRP | 0.108
143 | RRIRVRPPRLPRPRPRPIGGPRP | 0.801
144 | RRIRRRPPRLPRPRPRPLAFPRP | 0.448
145 | RRIRDRPPRLPRPRPRPFALPRP | 0.206
146 | RRIRGRPPRLPRPRPRPAWRPRP | 0.934
147 | RRIRHRPPRLPRPRPRPSCIPRP | -0.265
148 | RRIRTRPPRLPRPRPRPYVMPRP | -1.53
149 | RRIRMRPPRLPRPRPRPYIWPRP | -0.402
150 | RRIRARPPRLPRPRPRPPISPRP | 0.027
